In article PMC9071432:

Target: sg-Tu-Ts_dCC (Escherichia coli) (UniProt P0A6P1+P0CE48)
Test: EMSA
Conditions: 10 mM Mg2+; printed >>30; none (in vitro transcript); EMSA: 50 mM Tris-Cl pH 7.4, 10 mM MgCl2, 50 mM NaCl, 10 mM b-ME, 10% glycerol, 37C 10 min, gel at ~25C; pull-down: Tu-GTP preincubated in 50 mM Tris-Cl pH 7.0 …

UniProt P0A6P1, sequence (P0A6P1 whole entry, chain 1 of 2): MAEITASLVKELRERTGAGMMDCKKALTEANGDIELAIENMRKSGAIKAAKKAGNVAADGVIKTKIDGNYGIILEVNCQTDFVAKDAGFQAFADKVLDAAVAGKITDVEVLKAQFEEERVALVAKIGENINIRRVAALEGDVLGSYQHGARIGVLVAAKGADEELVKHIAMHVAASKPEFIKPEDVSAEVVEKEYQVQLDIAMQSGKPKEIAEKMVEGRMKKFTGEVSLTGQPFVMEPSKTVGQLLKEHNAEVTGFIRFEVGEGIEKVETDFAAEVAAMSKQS
UniProt P0A6P1, sequence (P0CE48 whole entry, chain 2 of 2): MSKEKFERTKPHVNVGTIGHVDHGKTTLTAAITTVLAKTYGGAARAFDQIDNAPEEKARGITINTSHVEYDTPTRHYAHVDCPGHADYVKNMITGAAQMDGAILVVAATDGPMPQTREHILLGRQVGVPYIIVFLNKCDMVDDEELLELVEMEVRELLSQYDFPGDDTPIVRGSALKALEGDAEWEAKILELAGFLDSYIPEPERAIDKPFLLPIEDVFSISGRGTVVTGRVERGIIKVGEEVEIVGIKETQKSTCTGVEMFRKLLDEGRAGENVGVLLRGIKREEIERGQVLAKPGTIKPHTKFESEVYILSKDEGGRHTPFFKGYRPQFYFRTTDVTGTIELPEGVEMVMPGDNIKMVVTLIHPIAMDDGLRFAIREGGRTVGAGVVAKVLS

UGGGGUAUCGCCAAGCGGUAAGGCACCGGAUUCUGAUUCCGGCAUUCCGAGGUUCGAAUCCUCGUACCCCAGCCA [tRNAGln transcript (U1-A72, wt), uncharged]
Kd: > 30 µM
